Amyloid nucleation score data for 57 substances are collected here from the supplement of paper PMC12042874.

This data set is described as follows: amyloid nucleation score (Sup35N fusion, yeast selection) (log enrichment); library NNK1; higher = more nucleation; inactive = no reads after selection. In a few lines:
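The nucleation score is the DiMSum log enrichment of output over input reads, centred on the mode score of non-aggregating sequences. Only sequences with 100 or more input reads were scored, using Illumina sequencing of input and output plasmid inserts. Psi-negative yeast expressing Sup35N fused to peptides of 20 random codons were induced 24 hours with 100 μM copper sulfate and grown 7 days at 30°C on medium lacking adenine and uracil.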

± gives the uncertainty stated by the source.

In turn, GILVCLNYLGLFVVYHGFVW returned an amyloid nucleation score of 1.33 ± 0.56. Regarding FELICRW, the amyloid nucleation score was determined as 0.516 ± 1.1. As to LEGKPSEFYRNFHIYGVVYQ, the amyloid nucleation score was -0.531 ± 1.4. The substance VDLNWRHVDCCYFRFTTQDH showed an amyloid nucleation score of 6.04 ± 0.074. Substance NDRVNRNTFSYPWQVAFFRQ came in with an amyloid nucleation score of 4.94 ± 0.064. The substance TFCRLISGPKIRL had an amyloid nucleation score of -0.058 ± 0.42.

QFPERWDPFLPMSRASRYYH registered an amyloid nucleation score of 0.865 ± 0.69. To ARRGHKK belongs 1.32 ± 0.64; to VNCVGKLKFDE, 0.05 ± 0.18; to ECFSKFLNLRGSPLG, -0.098 ± 0.53. As for WPWCQYTYRFLSIMCKVFL, the amyloid nucleation score stood at 0.288 ± 0.65. Regarding RLSLETIVASFIYCCCAKFA, the amyloid nucleation score stood at 1.66 ± 0.5. With IMAGP the figure was -0.624 ± 0.58; with SDSRVVLPLLIPLSART, 0.865 ± 0.42; with FMIVKFLIL, 1.5 ± 0.26. With YTPMTTSWLLPSLEINI the figure was -0.069 ± 0.71; with VLCSCAMGYMFFFRAMMFR, -0.038 ± 0.38. To FCPNHHNCVISCEWHSGALR belongs 2.51 ± 0.13. TRTAGRSVCPVIQLMSWAAY had an amyloid nucleation score of 0.277 ± 0.44. As to LRGEDNLLWCVISMTL, the amyloid nucleation score result was “inactive”. In turn, VVSYWTHYPNKSLSWASWAA came in with an amyloid nucleation score of -0.671 ± 1.2.

For the substance SYLFVKGLIYSLSRLCLEVN, the amyloid nucleation score is -1.4 ± 0.7.

FGCTKANT came in with an amyloid nucleation score of -0.657 ± 1.1. In turn, AFRSRFVIFHDGIRVLGYAD had an amyloid nucleation score of -1.13 ± 2.1.

Turning to FLNLGSSDQSHYSCTKEWSH, the amyloid nucleation score is -0.157 ± 0.51. With RYFCAIWLGCGERRSRVSKW, the amyloid nucleation score is 1.38 ± 0.34. QFSRTRFFICGLGRSAPAVR registered an amyloid nucleation score of 1.53 ± 0.85. VYLSYVFMYS showed an amyloid nucleation score of -0.445 ± 0.36. To LMSLEHELRVKS belongs “inactive”; to NFFFRMNIN, 2.18 ± 0.39.

TACPNSGNFERYGHYRSSSA returned an amyloid nucleation score of 1.12 ± 0.58. With SLYAQVCWRSVEFYPRLFPE the figure was 2.26 ± 0.12; with GRTLVLDFTHHPPILRVPLR, 0 ± 0.48. In turn, LCARFWDCRFKVQ yielded an amyloid nucleation score of 0.142 ± 1.4. With LNGNLVTMEGVLINNSFRVT the figure was 0.394 ± 0.24.

In the case of KVLITCCGPKWSCSLAPDEL, the amyloid nucleation score stood at 0.668 ± 0.58. With VWRTQMFRV the figure was 0.37 ± 1.1; with NSIDFVFDDGVLIRFVIKVS, “inactive”; with CCPRYMSIDSIDDRFYDKSF, “inactive”. As to FTLIIRDLMFSRHEFRVHAG, the amyloid nucleation score is -0.213 ± 0.39. To YGNFKVGFFVIRAWNWLNLI belongs 0.319 ± 1.2; to AFIARVTRFGVTRDPLIRQ, “inactive”. In turn, TWQAWVGCWQYQRMGTEL came in with an amyloid nucleation score of 0.256 ± 0.58. To SVPDVVSYTKDTVVFNFGFT belongs 3.31 ± 0.083. Take FDAAIVLCSDVSIKGCLSRN: the amyloid nucleation score stood at 1.27 ± 0.27. SVLYRINP yielded an amyloid nucleation score of -1.55 ± 2.4. With CCSTSADIHSARNDVWSYSE the figure was -0.271 ± 0.88; with ILSEPNELTGACLAS, 0.29 ± 0.78. To EPFGLGFRRNDLSYANRVGS belongs -0.887 ± 1.3; to IRQQKGFGCNAFWMVLG, 0.83 ± 0.78; to CVHQIVGLTRIPFGWELSWR, -1.62 ± 1.7. For the substance FSCLNSFKRVFNFNIPASVC, the amyloid nucleation score is -0.863 ± 1.

In turn, PHDSFLMHTDSGEHWGPVYR had an amyloid nucleation score of 0.037 ± 0.36. To DWMFCTYCVTVFESQNVAVH belongs 0.272 ± 0.27; to LRSNHWNHTCLHNIRGCS, 3.42 ± 0.071.

As to FQMLF, the amyloid nucleation score was -0.752 ± 0.7. Substance HWNHYWQ returned an amyloid nucleation score of -0.07 ± 0.46.
